{"source": "patent US20140120555A1", "about": "(PIERRE FABRE MEDICAMENT, published 2014)", "binders": {"B1": {"name": "chimeric antibody c515H7 (antibody, human IgG1, kappa)", "heavy": "not shown", "light": "DIVMSQSPSSLAVSAGEKVTMSCKSSQSLFNSRTRKNYLAWYQQKPGQSPKLLIYWASARDSGVPARFTGSGSETYFTLTISRVQAEDLAVYYCMQSFNLRTFGGGTKLEIKRTVAAPSVFIFPPSDEQLKSGTASVVCLLNNFYPREAKVQWKVDNALQSGNSQESVTEQDSKDSTYSLSSTLTLSKADYEKHKVYACEVTHQGLSSPVTKSFNRGEC", "notes": "Human IgG1/kappa constant domains; also called c515H7 Mab; chimeric 515H7"}, "B2": {"name": "humanized antibody Hz515H7 VH1 D76N VL2 (antibody, human IgG1, kappa)", "heavy": "not shown", "light": "B1 light with S5T, A15L, K18R, V19A, G105Q, L109V", "notes": "IgG1/kappa; also called hz515H7VL2; hz515H7-1"}}, "key": {"[1]": {"target": "T1, Recombinant mouse FcγRIII [CD16], Ala31-Thr215 with C-terminal 10-His tag (mouse, UniProt P08508 31-215)", "T1 construct": "Soluble form bought from R&D Systems; also called m-FcγRIII", "T1 sequence": "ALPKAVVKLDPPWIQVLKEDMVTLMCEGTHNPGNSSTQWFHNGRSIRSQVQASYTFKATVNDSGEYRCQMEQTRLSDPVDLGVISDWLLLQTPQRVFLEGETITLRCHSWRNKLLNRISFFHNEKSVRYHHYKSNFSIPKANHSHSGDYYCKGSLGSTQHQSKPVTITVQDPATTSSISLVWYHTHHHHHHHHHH", "test": "SPR (Biacore X): m-FcγRIII injected over c515H7 Mab immobilized on a CM4 sensorchip; heterogeneous ligand model, minor component (1%)", "description": "(§1) 2017 RU of c515H7 Mab were immobilized using the amine coupling kit chemistry on the second flowcell (FC2) of a CM4 sensorchip. The first flowcell (FC1) activated by NHS and EDC mixture and des-activated by ethanolamine served as the reference surface to check and subtract the non specific interaction between the analyte (Fc gamma receptors) and the sensorchip matrix.\n(§2) The kinetic experiments were carried out at 25° Celsius at a flow rate of 30 μl/min. The HBS-EP buffer was used either as the running buffer or for the preparation of analyte solutions. The analyte solutions were injected during 90 seconds (association phase) with a 90 seconds delay (dissociation phase). An injection of running buffer as analyte was used as a double reference. All the sensorgrams were corrected by this double reference sensorgram.\n(§3) After each injection of the analyte, the sensorchip was regenerated by injection of 20 mM NaOH, 75 mM NaCl solution."}, "[2]": {"target": "T2, Recombinant human FcγRIIIA variant V [CD16a], Gln17-Gln208 with C-terminal 6-His tag (human, UniProt P08637 17-208)", "T2 construct": "range 17-208; 'variant V' is given without a position, so no substitution is written; also called h-FcγRIIIA", "T2 sequence (P08637 other isoform, or with tags, fused parts or gaps mutant limits assumed, form in doubt)": "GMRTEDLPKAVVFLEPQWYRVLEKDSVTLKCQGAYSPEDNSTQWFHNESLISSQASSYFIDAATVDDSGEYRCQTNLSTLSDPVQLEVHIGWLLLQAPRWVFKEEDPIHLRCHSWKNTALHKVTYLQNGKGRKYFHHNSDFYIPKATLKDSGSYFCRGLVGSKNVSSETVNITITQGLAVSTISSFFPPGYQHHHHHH", "test": "SPR (Biacore X): h-FcγRIIIA injected over c515H7 Mab immobilized on a CM4 sensorchip; Langmuir model", "description": "as §1, §2, §3"}, "[3]": {"target": "T2, Recombinant human FcγRIIIA variant V …", "test": "SPR (Biacore X): h-FcγRIIIA injected over c515H7 Mab immobilized on a CM4 sensorchip; heterogeneous ligand model, minor component (19%)", "description": "as §1, §2, §3"}, "[4]": {"target": "T3, Recombinant mouse FcγRI [CD64], Gln25-Pro297 with C-terminal 6-His tag (mouse, UniProt P26151 25-297)", "T3 construct": "range 25-297; Soluble form bought from R&D Systems; also called m-FcγRI", "T3 sequence": "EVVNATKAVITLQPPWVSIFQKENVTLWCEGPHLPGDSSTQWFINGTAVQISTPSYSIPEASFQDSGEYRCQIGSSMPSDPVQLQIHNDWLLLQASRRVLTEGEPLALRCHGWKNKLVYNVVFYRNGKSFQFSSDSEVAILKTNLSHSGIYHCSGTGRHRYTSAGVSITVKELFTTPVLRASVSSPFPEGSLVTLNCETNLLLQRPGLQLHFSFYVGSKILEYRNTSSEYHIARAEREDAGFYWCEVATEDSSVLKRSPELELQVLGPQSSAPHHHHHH", "test": "SPR (Biacore X): m-FcγRI injected over hz515H7VH1D76NVL2 Mab immobilized on a CM4 sensorchip; heterogeneous ligand model, major component (82%)", "description": "as §1, with “1964” for “2017”, “hz515H7VH1D76NVL2” for “c515H7”\nas §2\n(§4) After each injection of the analyte, the sensorchip was regenerated by injection of either 20 mM NaOH solution after h-FcγRI and m-FcγRIII or 10 mM NaOH after h-FcγRIIIA and m-FcγRI."}, "[5]": {"target": "T3, Recombinant mouse FcγRI [CD64], …", "test": "SPR (Biacore X), Mab on CM4 chip, m-FcγRI as analyte, heterogeneous ligand model, minor component", "description": "as §1, with “1964” for “2017”, “hz515H7VH1D76NVL2” for “c515H7”\nas §2, §4"}, "[6]": {"target": "T2, Recombinant human FcγRIIIA variant V …", "test": "SPR (Biacore X): h-FcγRIIIA injected over hz515H7VH1D76NVL2 Mab immobilized on a CM4 sensorchip; heterogeneous ligand model, minor component (21%)", "description": "as §1, with “1964” for “2017”, “hz515H7VH1D76NVL2” for “c515H7”\nas §2\nSensorgrams obtained with h-FcγRIIIA [FIG. 16] were clearly not fitted by the Langmuïr model (Chi2/Rmax>20%). […] According to this model, the hz515H7VH1D76NVL2 Mab Fc domain may be regarded as a mixture of two components. […] According to the literature, the heterogeneity observed with h-FcγRIIIA was probably linked to the glycosylation heterogeneity on the Mab Fc domain."}, "[7]": {"target": "T4, Recombinant human FcγRI [CD64], Gln16-Pro288 with C-terminal 6-His tag (human, UniProt P12314 16-288)", "T4 construct": "range 16-288; Soluble form bought from R&D Systems; also called h-FcγRI", "T4 sequence (P12314 other isoform, or with tags, fused parts or gaps limits assumed)": "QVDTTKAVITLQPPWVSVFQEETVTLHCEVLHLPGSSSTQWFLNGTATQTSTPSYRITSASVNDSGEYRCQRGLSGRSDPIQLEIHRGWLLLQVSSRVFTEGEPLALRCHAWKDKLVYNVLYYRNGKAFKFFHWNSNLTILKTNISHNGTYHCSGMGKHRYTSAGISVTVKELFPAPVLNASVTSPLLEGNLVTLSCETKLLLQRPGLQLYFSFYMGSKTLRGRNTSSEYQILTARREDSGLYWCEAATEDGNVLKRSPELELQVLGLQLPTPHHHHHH", "test": "SPR (Biacore X): h-FcγRI injected over hz515H7VH1D76NVL2 Mab immobilized on a CM4 sensorchip; heterogeneous ligand model, major component (99%)", "description": "(§5) The experiments were carried out using a Biacore X device. The soluble forms of the four Fc […]gamma receptors used in this study were purchased from R&D Systems: […]"}, "[8]": {"target": "T4, Recombinant human FcγRI [CD64], …", "test": "SPR (Biacore X): h-FcγRI injected over hz515H7VH1D76NVL2 Mab immobilized on a CM4 sensorchip; heterogeneous ligand model, minor component (1%)", "description": "as §5"}}, "note": "Numbering of substitutions follows the chain as printed. Numbers in names are those of the source.", "data": [{"binder": "B1", "values": [{"measurement": "Kd", "setting": "[1]", "value": 67, "unit": "nM"}, {"measurement": "koff", "setting": "[1]", "value": 0.0024, "unit": "s⁻¹"}, {"measurement": "kon", "setting": "[1]", "value": 40000, "unit": "M⁻¹ s⁻¹"}, {"measurement": "Kd", "setting": "[2]", "value": 63.8, "unit": "nM"}, {"measurement": "koff", "setting": "[2]", "value": 0.0263, "unit": "s⁻¹"}, {"measurement": "kon", "setting": "[2]", "value": 412000, "unit": "M⁻¹ s⁻¹"}, {"measurement": "Kd", "setting": "[3]", "value": 34.7, "unit": "nM"}, {"measurement": "koff", "setting": "[3]", "value": 0.0124, "unit": "s⁻¹"}, {"measurement": "kon", "setting": "[3]", "value": 357000, "unit": "M⁻¹ s⁻¹"}]}, {"binder": "B2", "values": [{"measurement": "Kd", "setting": "[4]", "value": 76.8, "unit": "nM"}, {"measurement": "koff", "setting": "[4]", "value": 0.106, "unit": "s⁻¹"}, {"measurement": "kon", "setting": "[4]", "value": "1.38e+06", "unit": "M⁻¹ s⁻¹"}, {"measurement": "Kd", "setting": "[5]", "value": "~90", "unit": "nM"}, {"measurement": "Kd", "setting": "[6]", "value": 29.3, "unit": "nM"}, {"measurement": "koff", "setting": "[6]", "value": 0.0155, "unit": "s⁻¹"}, {"measurement": "kon", "setting": "[6]", "value": 529000, "unit": "M⁻¹ s⁻¹"}, {"measurement": "Kd", "setting": "[7]", "value": 0.69, "unit": "nM"}, {"measurement": "koff", "setting": "[7]", "value": 0.0004, "unit": "s⁻¹"}, {"measurement": "kon", "setting": "[7]", "value": 579000, "unit": "M⁻¹ s⁻¹"}, {"measurement": "Kd", "setting": "[8]", "value": 0.28, "unit": "nM"}, {"measurement": "koff", "setting": "[8]", "value": "2e-05", "unit": "s⁻¹"}, {"measurement": "kon", "setting": "[8]", "value": 72000, "unit": "M⁻¹ s⁻¹"}]}]}
